Data published in patent publication US20250320312A1 (OXITOPE PHARMA B V, published 2025).
Residue numbers refer to the chain shown, from its start.

T1: Peptide 4: Biotin-AGGGGSGGGGSGGGGSAAA-Tyr-acid (N-terminal biotin; C-terminal acid; no PC)
T1 construct: control peptide without PC
T1 peptide: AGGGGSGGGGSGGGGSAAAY

T2: Peptide 8: Biotin-AEAAAKEAAAKEAAAKEAAAKAAA-Tyr-acid (N-terminal biotin; C-terminal acid; no PC)
T2 construct: control peptide without PC
T2 peptide: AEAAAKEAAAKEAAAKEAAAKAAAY

B1: PcOxP_DB01_G06 (scFv, V domains shown)
VH: EVQLLESGGGLVQPGGSLRLSCAASGFTFSDYYMEWVRQAPGKGLEWVAASRNKWNDYTTEYADSVKGRFTISRDNSKNTLYLQMNSLRAEDTAVYYCARDYYGSSYWYFDVWGQGTLVTVSS
VL: DIVMTQSPDSLAVSLGERATINCTASESLYSSKHKVHYLAWYQQKPGQPPKLLIYGASNRYSGVPDRFSGSGSGTDFTLTISSLQAEDVAVYYCAQFYSYPLTFGGGTKVEIK
notes: scFv in periplasmic extract
B2: PcOxP_DB01_G07 (scFv, V domains shown)
VH: B1 VH with W55Y
VL: B1 VL with S31G, S62I
notes: scFv in periplasmic extract
B3: PcOxP_DB01_G10 (scFv, V domains shown)
VH: B1 VH with Y32F, W55N
VL: B1 VL with T24K, E27Q, V36K, S62P, S99R
notes: scFv in periplasmic extract
B4: PcOxP_DB01_H01 (scFv, V domains shown)
VH: B1 VH with D31S, W55A, D57L, Y107T
VL: B1 VL with S62I
notes: scFv in periplasmic extract
B5: PcOxP_DB01_H02 (scFv, V domains shown)
VH: B1 VH with D31S, W55A
VL: B1 VL with E27S, S62I
notes: scFv in periplasmic extract
B6: PcOxP_DB01_H03 (scFv, V domains shown)
VH: B1 VH with Y32H, N53G, W55G, D57S, E61A
VL: B1 VL with S58G, S62I, S99H
notes: scFv in periplasmic extract
B7: PcOxP_DB01_H06 (scFv, V domains shown)
VH: B1 VH with Y32F, W55G, D57S, E61A
VL: B1 VL with S62D, Q96N
notes: scFv in periplasmic extract
B8: PcOxP_DB02_A04 (scFv, V domains shown)
VH: B1 VH with F27D, Y32F
VL: B1 VL with S62I
notes: scFv in periplasmic extract
B9: PcOxP_DB02_A05 (scFv, V domains shown)
VH: B1 VH with F29G, Y32F
VL: B1 VL with S58G, S62I
notes: scFv in periplasmic extract
B10: PcOxP_DB02_B04 (scFv, V domains shown)
VH: B1 VH
VL: B1 VL with S62I
notes: scFv in periplasmic extract
B11: PcOxP_DB02_B07 (scFv, V domains shown)
VH: B1 VH with Y32Q, K54N, W55A
VL: B1 VL with Y61Q, S62I, S99H
notes: scFv in periplasmic extract
B12: PcOxP_DB02_C03 (scFv, V domains shown)
VH: B1 VH with N53W, W55A
VL: B1 VL with S62I, S99V
notes: scFv in periplasmic extract
B13: PcOxP_DB02_C04 (scFv, V domains shown)
VH: B1 VH with F27Q, Y32F, W55A, D57G, A63T
VL: B1 VL with S58N, S62I
notes: scFv in periplasmic extract
B14: PcOxP_DB02_C05 (scFv, V domains shown)
VH: B1 VH with F29A, Y32F, W55A
VL: B1 VL with S62I
notes: scFv in periplasmic extract
B15: PcOxP_DB02_C08 (scFv, V domains shown)
VH: B1 VH with Y32P, W55A, S106P
VL: B1 VL with T24G, H34S, S62I
notes: scFv in periplasmic extract
B16: PcOxP_DB02_C10 (scFv, V domains shown)
VH: B1 VH with W55A
VL: B1 VL with S62I, S99E
notes: scFv in periplasmic extract
B17: PcOxP_DB02_C12 (scFv, V domains shown)
VH: B1 VH with Y32H, W55A
VL: B1 VL with S58H, S62I, Q96N
notes: scFv in periplasmic extract
B18: PcOxP_DB02_D02 (scFv, V domains shown)
VH: B1 VH with W55A, V112T
VL: B1 VL with A25S, L29V, K33S, S62I, S99Y
notes: scFv in periplasmic extract
B19: PcOxP_DB02_D03 (scFv, V domains shown)
VH: B1 VH with F29Q, Y32F, W55A, D57A, S105Y
VL: B1 VL with A57N, S62I, A95G
notes: scFv in periplasmic extract
B20: PcOxP_DB02_E02 (scFv, V domains shown)
VH: B1 VH with Y32E, K54S, W55G, D57S, E61A
VL: B1 VL with S62I
notes: scFv in periplasmic extract
B21: PcOxP_DB02_E03 (scFv, V domains shown)
VH: B1 VH with N53W, W55A, Y107Q
VL: B1 VL with V36K, H37N, N59W, S62I
notes: scFv in periplasmic extract
B22: PcOxP_DB02_E08 (scFv, V domains shown)
VH: B1 VH with Y32D, S51T, W55A, V112S
VL: B1 VL with S62I
notes: scFv in periplasmic extract
B23: PcOxP_DB02_E09 (scFv, V domains shown)
VH: B1 VH with N53W, W55A
VL: B1 VL with N59T, S99T
notes: scFv in periplasmic extract
B24: PcOxP_DB02_E11 (scFv, V domains shown)
VH: B1 VH with Y32Q, W55A, T60V
VL: B1 VL with T24K, A25S, Y30L, S31Y, H34N, K35N, V36K, H37N
notes: scFv in periplasmic extract
B25: PcOxP_DB01_G05 (human IgG1) (antibody, V domains shown)
VH: B1 VH with D31S, W55A, D57E
VL: B1 VL with S62I, Q96N
B26: PcOxP_DB01_G09 (human IgG1) (antibody, V domains shown)
VH: B1 VH with W55A, D57T
VL: DIQMTQSPSSLSASVGDRVTITCTASESLYSSKHKVHYLAWYQQKPGKAPKLLIYGASNLYSGVPSRFSGSGSGTDFTLTISSLQPEDFATYYCAQFYSYPLTFGGGTKVEIK
B27: PcOxP_DB01_H01 (human IgG1) (antibody, V domains shown)
VH: B1 VH with D31S, W55A, D57L, Y107T
VL: B1 VL with S62I
B28: PcOxP_DB03_B11 (human IgG1) (antibody, V domains shown)
VH: B1 VH with Y32F, M34V, W55A, D57T
VL: B1 VL with S58Q, S62I, A95G
B29: PcOxP_DB03_C10 (human IgG1) (antibody, V domains shown)
VH: B1 VH with D31S, W55A, D57E
VL: B1 VL with S58G, S62I
B30: PcOxP_DB03_H08 (human IgG1) (antibody, V domains shown)
VH: B1 VH with F27G, Y32F, W55A, D57T
VL: B26 VL with A57S, L60R, S62I, S99Q

What follows are molecules tested against BSA (UniProt P02769) (assay: scFv ELISA).
Sequence of BSA (P02769 25-607 limits assumed): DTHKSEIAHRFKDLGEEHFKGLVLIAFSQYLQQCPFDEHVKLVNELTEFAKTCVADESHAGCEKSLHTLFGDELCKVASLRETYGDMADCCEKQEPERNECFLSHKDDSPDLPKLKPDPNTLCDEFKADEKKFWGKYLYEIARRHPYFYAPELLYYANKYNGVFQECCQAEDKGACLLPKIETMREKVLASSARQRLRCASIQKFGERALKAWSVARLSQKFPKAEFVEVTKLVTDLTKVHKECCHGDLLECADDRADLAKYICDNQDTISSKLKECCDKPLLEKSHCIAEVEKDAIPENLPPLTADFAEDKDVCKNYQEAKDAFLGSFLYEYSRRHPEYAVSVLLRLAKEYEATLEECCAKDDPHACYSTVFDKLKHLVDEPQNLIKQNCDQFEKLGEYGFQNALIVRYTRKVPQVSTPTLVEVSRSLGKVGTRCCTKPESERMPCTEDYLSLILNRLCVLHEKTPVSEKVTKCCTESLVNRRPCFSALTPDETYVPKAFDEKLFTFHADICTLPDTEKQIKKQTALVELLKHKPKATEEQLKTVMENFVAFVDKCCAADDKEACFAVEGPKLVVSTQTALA

| Molecule | OD450 [OD450] |
| --- | --- |
| B1 | 0.06 |
| B2 | 0.07 |
| B3 | 0.1 |
| B4 | 0.09 |
| B5 | 0.1 |
| B6 | 0.1 |
| B7 | 0.11 |
| B8 | 0.09 |
| B9 | 0.07 |
| B10 | 0.08 |
| B11 | 0.06 |
| B12 | 0.1 |
| B13 | 0.08 |
| B14 | 0.06 |
| B15 | 0.06 |
| B16 | 0.06 |
| B17 | 0.07 |
| B18 | 0.05 |
| B19 | 0.08 |
| B20 | 0.06 |
| B21 | 0.08 |
| B22 | 0.07 |
| B23 | 0.07 |
| B24 | 0.06 |

These molecules were tested against Peptide 1: Biotin-…-[Tyr(PC)]-acid (assay: scFv ELISA).

| Molecule | OD450 [OD450] |
| --- | --- |
| B1 | 0.73 |
| B2 | 0.46 |
| B3 | 0.71 |
| B4 | 0.82 |
| B5 | 0.74 |
| B6 | 0.46 |
| B7 | 0.96 |
| B8 | 0.33 |
| B9 | 0.99 |
| B10 | 0.75 |
| B11 | 0.4 |
| B12 | 0.54 |
| B13 | 0.37 |
| B14 | 0.64 |
| B15 | 0.22 |
| B16 | 0.44 |
| B17 | 0.97 |
| B18 | 0.16 |
| B19 | 0.42 |
| B20 | 0.09 |
| B21 | 0.39 |
| B22 | 0.24 |
| B23 | 0.56 |
| B24 | 0.23 |

The molecules below were run against Peptide 5: Biotin-…-[Tyr(PC)]-acid (assay: scFv ELISA).

| Molecule | OD450 [OD450] |
| --- | --- |
| B1 | 1.32 |
| B2 | 1.2 |
| B3 | 1.52 |
| B4 | 1.23 |
| B5 | 1.1 |
| B6 | 1.29 |
| B7 | 1.79 |
| B8 | 0.82 |
| B9 | 1.24 |
| B10 | 1.32 |
| B11 | 0.77 |
| B12 | 0.61 |
| B13 | 0.75 |
| B14 | 0.92 |
| B15 | 0.39 |
| B16 | 0.92 |
| B17 | 1.58 |
| B18 | 0.27 |
| B19 | 0.71 |
| B20 | 0.34 |
| B21 | 0.75 |
| B22 | 0.49 |
| B23 | 0.74 |
| B24 | 0.76 |

Target: T1, Peptide 4: …
Experiment: scFv ELISA
Summary of the method: (§1)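 Bound scFv was read as OD450 after HRP–anti-V5 detection, TMB development and HCl stop. PPE with BSA was incubated 1 h at RT on BSA-blocked wells coated overnight at 4° C. with peptide, or on streptavidin wells loaded 1 h with biotinylated PC-peptides at 1 μg/mL.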

| Molecule | OD450 [OD450] |
| --- | --- |
| B1 | 0.05 |
| B2 | 0.05 |
| B3 | 0.05 |
| B4 | 0.07 |
| B5 | 0.07 |
| B6 | 0.07 |
| B7 | 0.05 |
| B8 | 0.04 |
| B9 | 0.05 |
| B10 | 0.05 |
| B11 | 0.04 |
| B12 | 0.05 |
| B13 | 0.05 |
| B14 | 0.04 |
| B15 | 0.06 |
| B16 | 0.04 |
| B17 | 0.04 |
| B18 | 0.04 |
| B19 | 0.04 |
| B20 | 0.04 |
| B21 | 0.04 |
| B22 | 0.04 |
| B23 | 0.04 |
| B24 | 0.04 |

Target: T2, Peptide 8: …
Experiment: scFv ELISA
Summary of the method: as §1

| Molecule | OD450 [OD450] |
| --- | --- |
| B1 | 0.04 |
| B2 | 0.04 |
| B3 | 0.05 |
| B4 | 0.06 |
| B5 | 0.06 |
| B6 | 0.06 |
| B7 | 0.07 |
| B8 | 0.04 |
| B9 | 0.04 |
| B10 | 0.04 |
| B11 | 0.04 |
| B12 | 0.05 |
| B13 | 0.05 |
| B14 | 0.04 |
| B15 | 0.04 |
| B16 | 0.04 |
| B17 | 0.04 |
| B18 | 0.04 |
| B19 | 0.04 |
| B20 | 0.05 |
| B21 | 0.05 |
| B22 | 0.04 |
| B23 | 0.04 |
| B24 | 0.04 |

Each molecule was assayed against PC-BSA (assay: ELISA (DELFIA TRF), PC-BSA coated, titrated IgG1).
Sequence of PC-BSA (P02769 25-607 limits assumed, form in doubt): as the sequence (P02769 25-607 limits assumed) above

| Molecule | EC50 [nM] |
| --- | --- |
| E06 parental IgG1 (antibody) | 0.39 |
| B25 | 0.263 |
| B26 | 0.308 |
| B27 | 0.275 |
| B28 | 0.299 |
| B29 | 0.285 |
| B30 | 0.445 |
